# From patent US9266964
# B1: M197-A01 (Fab, V domains shown)
# VH: EVQLLESGGGLVQPGGSLRLSCAASGFTFSIYDMIWVRQAPGKGLEWVSSIYPSGGNTSYADSVKGRFTISRDNSKNTLYLQMNSLRAEDTAVYYCAYRRTGIPRRDAFDIWGQGTMVTVSS
# VL: DIQMTQSPSTLSASVGDRVTITCRASQSISSWLAWYQQKPGKAPNLLIYKASTLESGVPSRFSGSGSGTEFTLTISSLQPDDFATYYCQQYNTYWTFGQGTKVEIK
# B2: M197-H10 (Fab, V domains shown)
# VH: EVQLLESGGGLVQPGGSLRLSCAASGFTFSSYNMHWVRQAPGKGLEWVSSIVPSGGKTNYADSVKGRFTISRDNSKNTLYLQMNSLRAEDTAVYYCAYRRTGIPRRDAFDIWGQGTMVTVSS
# VL: DIQMTQSPSTLSASVGDRVTITCRASQSISSWLAWYQQKPGKAPNLLIYKASTLESGVPSRFSGSGSGTEFTLTISSLQPDDFATYYCQQYNTYWTFGQGTKVEIK
# B3: M198-G07 (Fab, V domains shown)
# VH: EVQLLESGGGLVQPGGSLRLSCAASGFTFSIYDMTWVRQAPGKGLEWVSSIYPSGGQTIYADSVKGRFTISRDNSKNTLYLQMNSLRAEDTAVYYCAYRRTGIPRRDAFDIWGQGTMVTVSS
# VL: DIQMTQSPSTLSASVGDRVTITCRASQSISSWLAWYQQKPGKAPNLLIYKASTLESGVPSRFSGSGSGTEFTLTISSLQPDDFATYYCQQYNTYWTFGQGTKVEIK
# B4: M198-B09 (Fab, V domains shown)
# VH: EVQLLESGGGLVQPGGSLRLSCAASGFTFSVYSMTWVRQAPGKGLEWVSSIGSSGGSTTYADSVKGRFTISRDNSKNTLYLQMNSLRAEDTAVYYCAYRRTGIPRRDAFDIWGQGTMVTVSS
# VL: DIQMTQSPSTLSASVGDRVTITCRASQSISSWLAWYQQKPGKAPNLLIYKASTLESGVPSRFSGSGSGTEFTLTISSLQPDDFATYYCQQYNTYWTFGQGTKVEIK
# B5: M198-E09 (Fab, V domains shown)
# VH: EVQLLESGGGLVQPGGSLRLSCAASGFTFSIYDMNWVRQAPGKGLEWVSSIYPSGGRTRYADSVKGRFTISRDNSKNTLYLQMNSLRAEDTAVYYCAYRRTGIPRRDAFDIWGQGTMVTVSS
# VL: DIQMTQSPSTLSASVGDRVTITCRASQSISSWLAWYQQKPGKAPNLLIYKASTLESGVPSRFSGSGSGTEFTLTISSLQPDDFATYYCQQYNTYWTFGQGTKVEIK
# B6: M197-E12 (Fab, V domains shown)
# VH: EVQLLESGGGLVQPGGSLRLSCAASGFTFSTYTMRWVRQAPGKGLEWVSSIYPSGGKTQYADSVKGRFTISRDNSKNTLYLQMNSLRAEDTAVYYCAYRRTGIPRRDAFDIWGQGTMVTVSS
# VL: DIQMTQSPSTLSASVGDRVTITCRASQSISSWLAWYQQKPGKAPNLLIYKASTLESGVPSRFSGSGSGTEFTLTISSLQPDDFATYYCQQYNTYWTFGQGTKVEIK
# B7: M198-C10 (Fab, V domains shown)
# VH: EVQLLESGGGLVQPGGSLRLSCAASGFTFSHYMGMNWVRQAPGKGLEWVSSIVPSGGWTQYADSVKGRFTISRDNSKNTLYLQMNSLRAEDTAVYYCAYRRTGIPRRDAFDIWGQGTMVTVSS
# VL: DIQMTQSPSTLSASVGDRVTITCRASQSISSWLAWYQQKPGKAPNLLIYKASTLESGVPSRFSGSGSGTEFTLTISSLQPDDFATYYCQQYNTYWTFGQGTKVEIK
# B8: M197-A08 (Fab, V domains shown)
# VH: EVQLLESGGGLVQPGGSLRLSCAASGFTFSIYSMQWVRQAPGKGLEWVSSIGSSGGKTLYADSVKGRFTISRDNSKNTLYLQMNSLRAEDTAVYYCAYRRTGIPRRDAFDIWGQGTMVTVSS
# VL: DIQMTQSPSTLSASVGDRVTITCRASQSISSWLAWYQQKPGKAPNLLIYKASTLESGVPSRFSGSGSGTEFTLTISSLQPDDFATYYCQQYNTYWTFGQGTKVEIK
# Biological target: human plasma kallikrein (human, UniProt P03952 20-390; P03952 391-638)
# Assay: cell-based or functional assay
# Sequence of human plasma kallikrein (P03952 20-390, chain 1 of 2): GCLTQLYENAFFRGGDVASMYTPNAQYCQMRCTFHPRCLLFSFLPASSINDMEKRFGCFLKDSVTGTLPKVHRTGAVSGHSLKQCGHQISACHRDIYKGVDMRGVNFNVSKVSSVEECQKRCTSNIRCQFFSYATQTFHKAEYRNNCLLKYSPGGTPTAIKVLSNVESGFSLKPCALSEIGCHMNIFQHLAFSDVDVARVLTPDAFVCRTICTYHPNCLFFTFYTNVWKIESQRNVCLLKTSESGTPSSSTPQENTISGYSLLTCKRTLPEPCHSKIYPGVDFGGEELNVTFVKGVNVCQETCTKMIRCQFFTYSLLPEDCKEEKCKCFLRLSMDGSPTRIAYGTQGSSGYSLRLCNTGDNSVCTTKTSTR
# Sequence of human plasma kallikrein (P03952 391-638, chain 2 of 2): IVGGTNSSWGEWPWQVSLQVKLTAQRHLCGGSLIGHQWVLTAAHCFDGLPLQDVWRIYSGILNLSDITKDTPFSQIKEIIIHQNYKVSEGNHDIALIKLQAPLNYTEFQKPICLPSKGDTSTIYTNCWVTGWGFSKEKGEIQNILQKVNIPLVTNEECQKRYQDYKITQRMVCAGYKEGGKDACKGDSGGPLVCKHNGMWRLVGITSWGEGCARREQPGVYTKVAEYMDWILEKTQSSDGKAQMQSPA
row,Binder,% inhibition at 10 nM
1,B1,95.3%
2,B2,94.1%
3,B3,94.9%
4,B4,93.5%
5,B5,93.1%
6,B6,93%
7,B7,93%
8,B8,93.7%
